Experimental data: US10174336B2, “Herbicide-tolerant plants” (BASF Agrochemical Products B.V., priority 2010, dated 2019)

Key:
[1] = tested on: Sb01g007420.1; test: Yeast expression system, saflufenacil metabolism (LC/MS/MS); assay type: in vitro ADME, sorghum; details: yeast cells expressing Sb01g007420.1, 24 h incubation
[2] = tested on: OsICYP81A6; test: as above; assay type: in vitro ADME, rice
Text: Rice cytochrome P450 81A6 was cloned into pESC-His yeast expression vector (Stratagene) using BamHI and SalI. Constructs were transformed into YPH500 yeast strain (Stratagene) using a Yeast Maker Transformation System from Clontech. Positive clones were selected on SD-agar plates (0.7% yeast nitrogen base without amino acids, 2% glucose, 0.13% amino acid drop-out without histidine; plates solidified with 2% agar). Bioconversion of substrates was directly assayed in yeast cells expressing the respective cytochrome P450 gene. Cells were induced in SG-His medium (same composition as SD but with galactose instead of glucose) for 18-24 h (Pompon et al., Methods in Enzymology 272:51-64 (1996); Urban et al., Eur. J. Biochem. 222:[…] (1994)). Afterwards, the BAS800H substrate was added and samples were incubated for an additional 24 h. Samples were analyzed by LC/MS/MS.

[3] = tested on: transgenic maize plants; test: Maize whole plant saflufenacil spray test (T0 and T1); assay type: in vivo; details: 240 g ai/ha saflufenacil + 1% MSO at 2-4 leaf stage; rated 7 and 14 days after application
Procedure: Immature Embryo Transformation: Immature embryos were transformed according to the procedure outlined in WO2006/136596 to Peng et al. The exception was that a proportion of the embryos—25 in most cases—were placed on media containing saflufenacil and kept in the light for direct selection. The remaining embryos in each experiment were selected on Pursuit as described. Plants were tested utilizing Taqman analysis with the target being the nos terminator which is present in all constructs. Healthy looking plants were sent to the greenhouse for hardening out and subsequent spray testing. As with the BMS cells, RCB958 was utilized as a control both for transformation, saflufenacil selection, and for spray testing.
A total of 82 transgenic maize plants (2 constructs of interest and 1 control construct) were delivered to the greenhouse in tissue culture. The plants were individually transplanted into MetroMix 360 soil in 4″ pots. […]
Sixteen vectors harboring different P450 genes were tested for the ability to increase tolerance to saflufenacil in T0 maize plants. […] Injury rating was evaluated 7 and 14 days after application. FIG. 5 indicates the number of plants from each segregating event that were evaluated and scored for herbicidal injury.

[4] = tested on: T0 soybean cuttings; test: Soybean T0 cuttings saflufenacil spray test; assay type: in vivo, Soybean cv Williams 82; details: 0, 25, or 50 g ai/ha saflufenacil + 1% MSO; evaluated 7 days after treatment
Procedure: Soybean cv Williams 82 was transformed as previously described by Siminszky et al., Phytochem Rev. 5:445-458 (2006). After regeneration, transformants were transplanted to soil in small pots, placed in growth chambers (16 hr day/8 hr night; 25° C. day/23° C. night; 65% relative humidity; 130-150 μE m^−2 s^−1) and subsequently tested for the presence of the T-DNA via Taqman analysis. After a few weeks, healthy, transgenic positive, single copy events were transplanted to larger pots and allowed to grow in the growth chamber. An optimal shoot for cutting was about 3-4″ tall, with at least two nodes present. Each cutting was taken from the original transformant (mother plant) and dipped into rooting hormone powder (indole-3-butyric acid, IBA). The cutting was then placed in oasis wedges inside a bio-dome. The mother plant was taken to maturity in the greenhouse and harvested for seed. Wild type cuttings were also taken simultaneously to serve as negative controls. The cuttings were kept in the bio-dome for 5-7 days and then transplanted to 3″ pots and then acclimated in the growth chamber for two more days. Subsequently, the cuttings were transferred to the greenhouse, acclimated for approximately 4 days, and then subjected to spray tests containing 0, 25, and 50 g ai/ha saflufenacil plus 1% MSO. Herbicide injury evaluations were taken at 7 days after treatment.

[5] = tested on: maize, rice, and soybean transgenic systems; test: Saflufenacil tolerance in transgenic plant systems (FIG. 3 legend); assay type: in vivo; details: in one or more transgenic plant systems

## CC(C)N(C)S(=O)(=O)NC(=O)c1cc(-n2c(=O)cc(C(F)(F)F)n(C)c2=O)c(F)cc1Cl [BAS800H, 2-chloro-5-[3,6-dihydro-3-methyl-2,6-dioxo-4-(trifluoromethyl)-1(2H)-pyrimidinyl]-4-fluoro-N-[[methyl(1-methylethyl)amino]sulfonyl]benzamide]
[1]
  degradation of BAS800H: catalyzed degradation
[2]; after 24 h incubation in P450-expressing yeast, enzyme not specified (OsICYP81A6 and Sb01g007420.1 named)
  initial content of BAS800H converted into several metabolites: 10%
[2]; yeast cells expressing OsICYP81A6, 24 h incubation
  degradation of BAS800H: catalyzed degradation

B1: OsICYP81 A: CYP450 gene/polypeptide OsICYP81A6, amino acid sequence SEQ ID NO:29 (protein, listed as Oryza sativa)
chain: MDNAYIIAILSVAILFLLHYYLLGRGNGGAARLPPGPPAVPILGHLHLVKKPMHATMSRLAERYGPVFSLRLGSRRAVVVSSPGCARECFTEHDVTFANRPRFESQLLVSFNGAALATASYGAHWRNLRRIVAVQLLSAHRVGLMSGLIAGEVRAMVRRMYRAAAASPAGAARIQLKRRLFEVSLSVLMETIAHTKATRPETDPDTDMSVEAQEFKQVVDEIIPHIGAANLWDYLPALRWFDVFGVRRKILAAVSRRDAFLRRLIDAERRRLDDGDEGEKKSMIAVLLTLQKTEPEVYTDNMITALTANLFGAGTETTSTTSEWAMSLLLNHPDTLKKAQAEIDASVGNSRLITADDVTRLGYLQCIVRETLRLYPAAPMLLPHESSADCKVGGYNIPRGSMLLINAYAIHRDPAVWEEPEKFMPERFEDGGCDGNLLMPFGMGRRRCPGETLALRTVGLVLGTLIQCFDWERVDGVEVDMTEGGGLTIPKVVPLEAMCRPRDAMGGVLRELV
[3]
  tolerance of segregating T1 maize events (reduced injury scores vs J553 wild type): increased tolerance

B2: ZmNSF1: corn NSF1 cytochrome P450 gene/polypeptide, amino acid sequence SEQ ID NO:3 (protein)
chain: MDKAYIAALSAAALFLLHYLLGRRAGGEGKAKAKGSRRRLPPSPPAIPFLGHLHLVKAPFHGALARLAARHGPVFSMRLGTRRAVVVSSPDCARECFTEHDVNFANRPLFPSMRLASFDGAMLSVSSYGPYWRNLRRVAAVQLLSAHRVGCMAPAIEAQVRAMVRRMDRAAAAGGGGVARVQLKRRLFELSLSVLMETIAHTKTSRAEADADSDMSTEAHEFKQIVDELVPYIGTANRWDYLPVLRWFDVFGVRNKILDAVGRRDAFLGRLIDGERRRLDAGDESESKSMIAVLLTLQKSEPEVYTDTVITALCANLFGAGTETTSTTTEWAMSLLLNHREALKKAQAEIDAAVGTSRLVTADDVPHLTYLQCIVDETLRLHPAAPLLLPHESAADCTVGGYDVPRGTMLLVNVHAVHRDPAVWEDPDRFVPERFEGAGGKAEGRLLMPFGMGRRKCPGETLALRTVGLVLATLLQCFDWDTVDGAQVDMKASGGLTMPRAVPLEAMCRPRTAMRGVLKRL
modifications: Zea mays
[4]
  level of tolerance to saflufenacil in T0 soybean cuttings: greatest level of tolerance
[5]
  conferred tolerance to saflufenacil: conferred tolerance

B3: OsCYP72A15: rice cytochrome P450 CYP72A15 gene/polypeptide, amino acid sequence SEQ ID NO:7 (protein, listed as Oryza sativa)
chain: MLMMLGAASQWILAAAAAAAVAALLWLAVSTLEWAWWTPRRLERALRAQGIRGNRYRLFTGDVPENVRLNREARKKPLPLGCHDIIPRVLPMFSKAVEEHGKPSFTWFGPTPRVMISDPESIREVMSNKFGHYGKPKPTRLGKLLASGVVSYEGEKWAKHRRILNPAFHHEKIKRMLPVFSNCCTEMVTRWENSMSIEGMSEVDVWPEFQNLTGDVISKTAFGSSYEEGRRIFQLQAESAERIIQAFRTIFIPGYWFLPTKNNRRLREIEREVSKLLRGIIGKRERAIKNGETSNGDLLGLLVESNMRESNGKAELGMTTDEIIEECKLFYFAGMETTSVLLTWTLIVLSMHPEWQERAREEVLHHFGRTTPDYDSLSRLKIVTMILYEVLRLYPPVVFLTRRTYKEMELGGIKYPAEVTLMLPILFIHHDPDIWGKDAGEFNPGRFADGISNATKYQTSFFPFGWGPRICIGQNFALLEAKMAICTILQRFSFELSPSYIHAPFTVITLHPQHGAQIKLKKI
[5]
  conferred tolerance to saflufenacil: conferred tolerance

B4: OsjCYP81A6: rice cytochrome P450 CYP81A6 gene/polypeptide, amino acid sequence SEQ ID NO:1 (protein, listed as Oryza sativa)
chain: MAFLGWAVDIARDSGASSSVVLTCDGYGSALYFSPWDSVPLPATASPDDGFLLPRFPDVCVQRSQFTNHLAPANGTGGGGSRTGVKEEASEVLSWPPTSKQSVRRLEVAEHWYRLYKTDNQRLSPDSQQVSVLAESHCDLASGNWKEISIHHKKMPSSTTTKTTTPSRDAWIVSARSDPFHLLLEAQAPLGIKADALSQIAAVHQSHRNTSHIRELSLAMDNAYIIAILSVAILFLLHYYLLGRGNGGAARLPPGPPAVPILGHLHLVKKPMHATMSRLAERYGPVFSLRLGSRRAVVVSSPGCARECFTEHDVTFANRPRFESQLLVSFNGAALATASYGAHWRNLRRIVAVQLLSAHRVGLMSGLIAGEVRAMVRRMYRAAAASPAGAARIQLKRRLFEVSLSVLMETIAHTKATRPETDPDTDMSVEAQEFKQVVDEIIPHIGAANLWDYLPALRWFDVFGVRRKILAAVSRRDAFLRRLIDAERRRLDDGDEGEKKSMIAVLLTLQKTEPEVYTDNMITALTANLFGAGTETTSTTSEWAMSLLLNHPDTLKKAQAEIDASVGNSRLITADDVTRLGYLQCIVRETLRLYPAAPMLLPHESSADCKVGGYNIPRGSMLLINAYAIHRDPAVWEEPEKFMPERFEDGGCDGNLLMPFGMGRRRCPGETLALRTVGLVLGTLIQCFDWERVDGVEVDMTEGGGLTIPKVVPLEAMCRPRDAMGGVLRELV
[4]
  level of tolerance to saflufenacil in T0 soybean cuttings: greatest level of tolerance
[3]
  tolerance of segregating T1 maize events (reduced injury scores vs J553 wild type): increased tolerance
